Results published in patent US12427188B2, “Pyocyanine demethylases and related phenazine degrading agents compositions, methods and systems for interfering with viability of bacteria” (priority 2020, dated 2025).
Changes are numbered by the printed parent chain. Names may count otherwise.

B1: PodA8: Designed PodA41-162 variant: A53N, I73R, A87V, T91V, A129V (protein)
chain: VTMTLDVKNDQVNKHDFGKPGMDVGDMDIFSDRLSVDGKQVGYDGGVCFFVNVTPDNPMTYCELTIHLDAGEIFARSLTPHTLAPFTMVITGGTGEYANSKGELTVSGVATPDEKYELKLTK
B2: PodA6: Designed PodA41-162 variant: I73R, A87V, T91V, M99V, A129T (protein)
chain: B1 chain with N13A, M59V, V89T
B3: PodA2: Designed PodA41-162 variant: I73T, A87V, T91V, M99V, A129V (protein)
chain: B1 chain with N13A, R33T, M59V
B4: PodA3: Designed PodA41-162 variant: I73K, A87V, T91V, M99V, A129V (protein)
chain: B1 chain with N13A, R33K, M59V
B5: PodA5: Designed PodA41-162 variant: I73L, A87I, M99V, A129V, K141T (protein)
chain: B1 chain with N13A, R33L, V47I, V51T, M59V, K101T
B6: PodA7: Designed PodA41-162 variant: I73L, A87I, T91V, M99T, A129V (protein)
chain: B1 chain with N13A, R33L, V47I, M59T
B7: PodA9: Designed PodA41-162 variant: I73K, A87V, T91V, A129V, K141T (protein)
chain: B1 chain with N13A, R33K, K101T
B8: WT PodA30-162: Truncated wild-type pyocyanin demethylase PodA, residues 30-162, SEQ ID NO: 2 (protein)
chain: MDGRGGRSTTEPVTMTLDVKNDQVAKHDFGKPGMDVGDMDIFSDILSVDGKQVGYDGGACFFTNVTPDNPMTYCELTIHLDAGEIFARSLTPHTLAPFTMAITGGTGEYANSKGELTVSGVATPDEKYELKLTKAENLYFQ
modifications: Sybthetic Polypeptide
B9: PodA1030-162: PodA10 of SEQ ID NO: 2: A24N, I44T, A58V, M70V, A100T (protein)
chain: B8 chain with A25N, I45T, A59V, M71V, A101T
modifications: Sybthetic Polypeptide
B10: PodA830-162: PodA8 of SEQ ID NO: 2: A24N, I44R, A58V, T62V, A100V (protein)
chain: B8 chain with A25N, I45R, A59V, T63V, A101V
modifications: Sybthetic Polypeptide
B11: PodA^D72A: PodA active site variant D72A (protein)
chain: MTGKTKPAIIGGVAITALAAAGLGVWLFTDGRGGRSTTEPVTMTLDVKNDQVAKHDFGKPGMDVGDMDIFSAILSVDGKQVGYDGGACFFTNVTPDNPMTYCELTIHLDAGEIFARSLTPHTLAPFTMAITGGTGEYANSKGELTVSGVATPDEKYELKLTK
B12: PodA^Y156A: PodA active site variant Y156A (protein)
chain: B11 chain with A72D, Y156A
B13: PodA^Y156F: PodA active site variant Y156F (protein)
chain: B11 chain with A72D, Y156F
B14: PodA^H121K: PodA active site variant H121K (protein)
chain: B11 chain with A72D, H121K
B15: PodA^E154A: PodA active site variant E154A, inactive (protein)
chain: B11 chain with A72D, E154A
B16: PodA^D68A: PodA variant inhibiting product release, D68A (protein)
chain: B11 chain with D68A, A72D
B17: PodA^H121A: PodA active site variant H121A (protein)
chain: B11 chain with A72D, H121A
B18: PodA^H121R: PodA active site variant H121R (protein)
chain: B11 chain with A72D, H121R

What was measured:
[1] = Continuous spectrophotometric PYO demethylation assay (specific activity and kinetics of PodA); format: biochemical; conditions: for catalytic efficiency compared with PodA^WT: Michaelis-Menten kinetics, 3 μM protein
Procedure: Specific activity and kinetics of PodA. To determine specific activity and kinetic parameters of PodA for PYO, a continuous spectrophotometric assay monitoring the absorbance of PYO (690 nm) was utilized. Briefly, assays were performed at 25° C. in 100 μL reaction volumes in 96-well plates and reactions were monitored at 690 nm over 10 min. Reaction mixtures contained Phosphate buffer (50 mM, pH 6.0), ethylene glycol (1%, v/v), protein (3 μM) and substrate (for specific activity, 100 μM, for kinetics, varying). Data were acquired using the SpectraMax® M3 Microplate Reader (Molecular Devices) using the Soft Max Pro software every 10 s over 10 min. Path lengths for each well were calculated using Soft Max Pro endpoint readings and slopes were corrected for path lengths of 1 cm.
Specific activity was calculated from the slope of the linear range of (ΔOD690 min^−1) using Beer's Law (A=εcl) with a path length of 1 cm and the molar extinction coefficient of PYO (4,130 M^−1 cm^−1). Equation was solved for c, giving specific activity in nmol min^−1 mg^−1 of PodA. For kinetic parameters, graphs of initial velocity (μM s^−1) versus substrate concentration (μM) were plotted using Prism v8 (GraphPad). The Michaelis-Menten kinetics model was used to determine Km and Vmax. The turnover number (kcat) was determined using the following equation: Vmax=kcat[E], where [E] was the concentration of PodA added. All spectrophotometric assays mentioned above were completed thrice, each in technical triplicate with a representative data set shown. Error bars represent standard deviation as calculated by Prism v8 (GraphPad). Standard deviation for kcat and Kcat KM^−1 was calculated using standard formulas for propagation of error.

[2] = Protein yield of PodA variants purified from inclusion bodies of overexpression culture; conditions: purified from inclusion bodies, per L of E. coli overexpression culture
Procedure: Protein overproduction and purification of soluble and inclusion body fractions. Plasmids coding for proteins of interest were transformed into E. coli BL21 […]. […]. Cultures were grown at 37° C. with shaking to an optical density of 0.4 (OD600 nm) and plasmid expression was induced with IPTG (50 μM) and shaken overnight at 16° C. Cells were harvested by centrifugation at 5,000×g for 10 min in a Beckman Coulter Avanti J-20 XOI refrigerated centrifuge using a JLA-8.1000 rotor at 4° C. Cell pellets were stored at −80° C. until used.
For purification of PodA from inclusion bodies, the pellets remaining following lysis and centrifugation at 40,000×g were resuspended in 20 mL of detergent buffer [50 mM HEPES (pH 7.5) and 1% Triton-X (v/v)] using a Bio-gen PRO200 cell homogenizer (PRO Scientific). Sample was spun for 15 min at 40,000×g at 4° C. in a Beckman Coulter Avanti centrifuge with a JA-25.50 rotor. Supernatant was discarded and the remaining cell pellet was resuspended in 5 mL of buffer [50 mM HEPES (pH 7.5), 500 mM NaCl] using a cell homogenizer, supplemented with lysozyme (200 μg mL^−1), and incubated for 10 min. Volume was increased to 20 mL with HEPES (50 mM, pH 7) and sample was spun for 40,000×g at 4° C. for 15 min. Supernatant was discarded and pellet was homogenized in 10 mL of denaturing buffer 50 mM HEPES (pH 7.5), 500 mM NaCl, and 8M urea) and incubating rocking overnight. The sample was spun at for 40,000×g at 25° C. for 30 min and supernatant was incubated with 1 mL HisPur Ni-NTA resin (Thermo Fisher Scientific) on a rocking platform for 10 min. Beads were allowed to settle without shaking, supernatant was discarded, and resin was pipetted into glass gravity columns. Resin was washed with 15 mL of denaturing buffer, followed by an elution with denaturing buffer supplemented with imidazole (500 mM). Fractions were analyzed by SDS-PAGE and those containing protein were combined into SnakeSkin 3.5 K MWCO dialysis tubing (Thermo Fisher Scientific). Urea was slowly dialyzed out in HEPES (50 mM, pH 7.5) and NaCl (500 mM) by lowing urea concentrations by 1 M increments. Each step was dialyzed at RT for 30 min. Protein was dialyzed in HEPES (50 mM, pH 7.5), NaCl (500 mM), and imidazole (20 mM) overnight at 4° C. The following day, protein was cleaved for 3 h at 25° C. with TEV protease (1:50 mg:mg ratio of TEV to PodA). The sample was applied to a HisPur gravity column and cleaved protein in the flow thru was confirmed by SDS-PAGE. Cleaved PodA protein was then dialyzed for storage for 3 h at 4° C. in HEPES (50 mM pH 7.5), NaCl (250 mM) and finally in HEPES (50 mM, pH 7.5), NaCl (100 mM), and glycerol (20%, v/v). Protein concentration was established on a NanoDrop™ using the extinction coefficient and MW of each protein. Protein was drop frozen in LN2 and stored at −80° C. until use.

[3] = pH 6, 1% ethylene glycol, PodA 3 μM, substrate PYO

Molecule | Yield [2] [mg/L^−1] | Activity of active site variants compared to controls ([1]; PodA 3 μM, PYO varying) | other results
B1 | 2.1 |  | catalytic efficiency compared with PodA^WT [1]: no change in catalytic efficiency; PYO demethylation activity relative to wild type ([1]; PYO 50 μM, PodA variants 3 μM): wild-type activity was maintained
B2 | 4.4 |  | 
B3 | 16.1 |  | 
B4 | 9.45 |  | 
B5 | 9.9 |  | 
B6 | 4.1 |  | 
B7 | 1.28 |  | 
B8 |  |  | pH of optimal activity ([1]; buffers pH 5.5-10.0, PodA 3 μM, PYO 100 μM): 6; Effect of salts (NaCl and KCl) on activity ([1]; cystic fibrosis sputum range, 66 mM Na+, 15 mM K+): did not inhibit or enhance; Effect of higher glycerol concentrations on the activity increase ([1]; glycerol 5 to 20%): reversed this activity increase; Km [1, 3]: 372 µM; catalytic efficiency [1, 3]: 4.73±0.24×10^2 M^−1 s^−1; kcat [1, 3]: 0.176 ± 0.003 s⁻¹; Effect of slight increase in viscosity (ethylene glycol or glycerol 1% v/v) on activity ([1]; pH 6, PodA 3 μM, PYO 100 μM): enhanced; catalytic efficiency ([1]; protein from soluble fraction): 1.05±0.093×10^2 M^−1 s^−1; catalytic efficiency ([1]; protein purified from inclusion bodies, denatured and refolded): 1.14±0.25× 10^2 M^−1 s^−1
B9 |  |  | catalytic efficiency compared with PodA^WT [1]: slight increase in efficiency
B10 |  |  | catalytic efficiency compared with PodA^WT [1]: no change
B11 |  | did not have measurable activity | 
B12 |  | did not have measurable activity | 
B13 |  | did not have measurable activity | 
B14 |  | did not have measurable activity | 
B15 |  | did not have measurable activity | 
B16 |  |  | Michaelis-Menten behaviour ([1]; PodA 3 μM, PYO varying): maintained similar Michaelis-Menten trends for concentrations of PYO under 100 μM, after which Vmax leveled off
B17 |  | did not have measurable activity | 
B18 |  | did not have measurable activity | 
